T1: TTHB099 (Thermus thermophilus HB8, UniProt Q53W63 1-195)
T1 sequence: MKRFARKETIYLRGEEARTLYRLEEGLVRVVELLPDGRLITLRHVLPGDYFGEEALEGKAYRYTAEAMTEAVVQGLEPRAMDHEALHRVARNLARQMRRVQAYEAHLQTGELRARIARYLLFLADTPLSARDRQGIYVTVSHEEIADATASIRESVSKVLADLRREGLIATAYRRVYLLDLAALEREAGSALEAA


Target: T1, TTHB099
Experiment: BLI; up to 450 nM TTHB099; Buffer, salt, pH and temperature not given (as previously described); BLI 17, 50, 150, 450 nM TTHB099 on streptavidin sensors; EMSA 0-42.2 nM TTHB099
Conditions: protein: recombinant; label: 5' biotin

Binder	binding result
TTHA0374 site (dsDNA) DNA 1: AGGAATTCGTGCAGAGGTGAATAGTGATGTAAACTAAATTACCATCCCTCCAGAAGCTTG DNA 2: CAAGCTTCTGGAGGGATGGTAATTTAGTTTACATCACTATTCACCTCTGCACGAATTCCT	no binding
ST2_REPSAis control (dsDNA) DNA 1: CTAGGAATTCGTGCAGAGGTGAATCGTCATAGAATTCGTTACCATCCCTCCAGAAGCTTGGAC DNA 2: GTCCAAGCTTCTGGAGGGATGGTAACGAATTCTATGACGATTCACCTCTGCACGAATTCCTAG	no binding

Target: T1, TTHB099
Experiment: BLI; Buffer, salt, pH and temperature not given (as previously described); BLI 17, 50, 150, 450 nM TTHB099 on streptavidin sensors; EMSA 0-42.2 nM TTHB099
Conditions: protein: recombinant; label: 5' biotin

Binder	Kd
ST2_099 m7 (dsDNA) DNA 1: AGGAATTCGTGCAGAGGTGAATTGTATTTTAGAATACATTACCATCCCTCCAGAAGCTTG DNA 2: CAAGCTTCTGGAGGGATGGTAATGTATTCTAAAATACAATTCACCTCTGCACGAATTCCT	5.82 nM
ST2_099 m8 (dsDNA) DNA 1: AGGAATTCGTGCAGAGGTGAATTGTATTCAAGAATACATTACCATCCCTCCAGAAGCTTG DNA 2: CAAGCTTCTGGAGGGATGGTAATGTATTCTTGAATACAATTCACCTCTGCACGAATTCCT	6.81 nM
TTHA0080/81 site (dsDNA) DNA 1: AGGAATTCGTGCAGAGGTGAATTGTGTTTTAGTTTACTTTACCATCCCTCCAGAAGCTTG DNA 2: CAAGCTTCTGGAGGGATGGTAAAGTAAACTAAAACACAATTCACCTCTGCACGAATTCCT	93.2 nM
TTHA0506/07 site (dsDNA) DNA 1: AGGAATTCGTGCAGAGGTGAATTGTTTTTCAAGATACATTACCATCCCTCCAGAAGCTTG DNA 2: CAAGCTTCTGGAGGGATGGTAATGTATCTTGAAAAACAATTCACCTCTGCACGAATTCCT	77.6 nM
TTHA0132/33 site (dsDNA) DNA 1: AGGAATTCGTGCAGAGGTGAATTGTAAGGGAGAATAAATTACCATCCCTCCAGAAGCTTG DNA 2: CAAGCTTCTGGAGGGATGGTAATTTATTCTCCCTTACAATTCACCTCTGCACGAATTCCT	221 nM
TTHB088/89 site (dsDNA) DNA 1: AGGAATTCGTGCAGAGGTGAATGGTAGCCTGGACCACATTACCATCCCTCCAGAAGCTTG DNA 2: CAAGCTTCTGGAGGGATGGTAATGTGGTCCAGGCTACCATTCACCTCTGCACGAATTCCT	3.35 nM
TTHA1833 site (dsDNA) DNA 1: AGGAATTCGTGCAGAGGTGAATTGTAGGCCAGGCCACGTTACCATCCCTCCAGAAGCTTG DNA 2: CAAGCTTCTGGAGGGATGGTAACGTGGCCTGGCCTACAATTCACCTCTGCACGAATTCCT	3.05 nM
TTHA1911/12 site (dsDNA) DNA 1: AGGAATTCGTGCAGAGGTGAATTGTACTTGAGCATACCTTACCATCCCTCCAGAAGCTTG DNA 2: CAAGCTTCTGGAGGGATGGTAAGGTATGCTCAAGTACAATTCACCTCTGCACGAATTCCT	65.6 nM
TTHA0201/02 site (dsDNA) DNA 1: AGGAATTCGTGCAGAGGTGAATTTTGTTATACGCCACATTACCATCCCTCCAGAAGCTTG DNA 2: CAAGCTTCTGGAGGGATGGTAATGTGGCGTATAACAAAATTCACCTCTGCACGAATTCCT	780 nM
TTHA1626/27 site (dsDNA) DNA 1: AGGAATTCGTGCAGAGGTGAATGGTATGGGAAGCTACATTACCATCCCTCCAGAAGCTTG DNA 2: CAAGCTTCTGGAGGGATGGTAATGTAGCTTCCCATACCATTCACCTCTGCACGAATTCCT	102 nM
ST2_099 m1 (dsDNA) DNA 1: AGGAATTCGTGCAGAGGTGAATGGTATTCTAGAATACATTACCATCCCTCCAGAAGCTTG DNA 2: CAAGCTTCTGGAGGGATGGTAATGTATTCTAGAATACCATTCACCTCTGCACGAATTCCT	6.29 nM
ST2_099 m2 (dsDNA) DNA 1: AGGAATTCGTGCAGAGGTGAATTTTATTCTAGAATACATTACCATCCCTCCAGAAGCTTG DNA 2: CAAGCTTCTGGAGGGATGGTAATGTATTCTAGAATAAAATTCACCTCTGCACGAATTCCT	33.6 nM
ST2_099 m3 (dsDNA) DNA 1: AGGAATTCGTGCAGAGGTGAATTGAATTCTAGAATACATTACCATCCCTCCAGAAGCTTG DNA 2: CAAGCTTCTGGAGGGATGGTAATGTATTCTAGAATTCAATTCACCTCTGCACGAATTCCT	13.8 nM
ST2_099 m4 (dsDNA) DNA 1: AGGAATTCGTGCAGAGGTGAATTGTCTTCTAGAATACATTACCATCCCTCCAGAAGCTTG DNA 2: CAAGCTTCTGGAGGGATGGTAATGTATTCTAGAAGACAATTCACCTCTGCACGAATTCCT	9.56 nM
ST2_099 m5 (dsDNA) DNA 1: AGGAATTCGTGCAGAGGTGAATTGTACTCTAGAATACATTACCATCCCTCCAGAAGCTTG DNA 2: CAAGCTTCTGGAGGGATGGTAATGTATTCTAGAGTACAATTCACCTCTGCACGAATTCCT	4.86 nM
ST2_099 m6 (dsDNA) DNA 1: AGGAATTCGTGCAGAGGTGAATTGTATACTAGAATACATTACCATCCCTCCAGAAGCTTG DNA 2: CAAGCTTCTGGAGGGATGGTAATGTATTCTAGTATACAATTCACCTCTGCACGAATTCCT	5.61 nM
